Substitutions are numbered along the chain they refer to. In names and notes the source's numbering stands. Values belong to the binder of their own block, whether it stands above or below them.
Legend:
[1] = molecular target: T1, recombinant human IL-6R sR (R&D systems) (human, UniProt P08887 20-358); test: SPR (Biacore T100), antibody captured on Protein A, rhIL-6sR as analyte, 25°C
T1 construct: Bought soluble receptor; also called rhIL-6sR; rhIL-s6R
T1 sequence (looked up): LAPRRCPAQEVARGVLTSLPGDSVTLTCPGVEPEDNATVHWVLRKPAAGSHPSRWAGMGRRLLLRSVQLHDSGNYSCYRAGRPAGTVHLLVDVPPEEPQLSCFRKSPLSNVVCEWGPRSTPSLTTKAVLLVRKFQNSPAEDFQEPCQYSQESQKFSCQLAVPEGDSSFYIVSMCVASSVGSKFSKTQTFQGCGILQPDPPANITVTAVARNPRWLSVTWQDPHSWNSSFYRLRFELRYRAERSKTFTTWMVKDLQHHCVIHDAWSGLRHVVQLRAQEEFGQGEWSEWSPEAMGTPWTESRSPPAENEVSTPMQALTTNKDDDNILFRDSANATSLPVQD

[2] = molecular target: T2, SR344 (soluble human IL-6R, N-terminal 1st to 344th amino acids) (human, UniProt P08887 20-344, limits assumed); test: cell-based or functional assay
T2 sequence (looked up): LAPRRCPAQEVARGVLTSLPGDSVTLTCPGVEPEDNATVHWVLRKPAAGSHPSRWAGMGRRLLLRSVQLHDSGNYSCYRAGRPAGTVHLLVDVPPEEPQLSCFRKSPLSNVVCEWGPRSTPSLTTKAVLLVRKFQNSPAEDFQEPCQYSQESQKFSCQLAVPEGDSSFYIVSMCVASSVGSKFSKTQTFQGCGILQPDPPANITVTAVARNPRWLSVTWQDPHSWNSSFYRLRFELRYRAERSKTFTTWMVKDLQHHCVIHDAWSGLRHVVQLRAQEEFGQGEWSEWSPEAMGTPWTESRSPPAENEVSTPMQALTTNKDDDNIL

[3] = molecular target: T2, SR344 (soluble human IL-6R, N-terminal …); test: SPR (Biacore T100), antibody captured on Protein A/G, SR344 as analyte, 37°C
[4] = molecular target: T1, recombinant human IL-6R sR (R&D systems); test: SPR (Biacore T100), antibody captured on Protein A/G, 37°C; end of the range tied by the KD values of Table 3
[5] = molecular target: T2, SR344 (soluble human IL-6R, N-terminal …); test: as above
[6] = molecular target: T1, recombinant human IL-6R sR (R&D systems); test: SPR (Biacore T100), antibody captured on Protein A, rhIL-6sR as analyte, 25°C; remark: listed apart in the source
[7] = molecular target: T2, SR344 (soluble human IL-6R, N-terminal …); test: SPR (Biacore T100), SR344 as analyte, 37°C; end of the range tied by the KD values of Table 16
[8] = molecular target: T3, soluble human FcRn (complex of FcRn and β2-microglobulin) (human, UniProt P55899 24-290; P61769 21-119); test: SPR (Biacore 3000), antibody captured, human FcRn as analyte, pH 6.0
T3 construct: Expressed constructs contain the signal regions (FcRn Met1-Leu290; β2-microglobulin Met1-Met119); also called hFcRn

fold higher affinity than WT [1]: ~50 times | BaF/gp130-neutralizing activity, 100% inhibitory concentration, against WT [2]: ~50 times higher than WT
B1: RD-6 (antibody, V domains shown)
VH: QVQLQESGPGLVRPSQTLSLTCTVSGYSITSDHAWSWVRQPPGRGLEWIGYISYSGITTYNPSLKSRVTMLRDTSKNQFSLRLSSVTAADTAVYYCARLLARATAMDYWGQGSLVTVSS
VL: DIQMTQSPSSLSASVGDRVTITCRASQDISSYLNWYQQKPGKAPKLLIYYTSRLHSGVPSRFSGSGSGTDFTFTISSLQPEDIATYYCQQGNTLPYTFGQGTKVEIK

fold improved affinity compared to WT [4]: 40 to 60 times | fold improved affinity compared to WT [5]: 40 to 60 times | BaF/gp130-neutralizing activity, 100% inhibitory concentration, against WT [2]: ~100 times higher than WT
B3: RDC-23 (antibody, V domains shown)
VH: B1 VH with L99V, A103I
VL: B1 VL with Q89G, T93R
notes: IgG; also called H chain RDC-5H, L chain RDC-11L

fold improved affinity compared to WT [3]: ~150 times
B4: PF1 antibody (antibody, IgG1, V domains shown)
VH: QVQLQESGPGLVKPSETLSLTCAVSGYSISDDHAWSWVRQPPGEGLEWIGYISYSGITNYNPSLKGRVTISRDTSKNQFSLKLSSVTAADTAAYYCARVLARITAMDYWGEGTLVTVSS
VL: DIQMTQSPSSLSASVGDSVTITCQASQDISSYLNWYQQKPGKAPELLIYYGSELHSGVPSRFSGSGSGTDFTFTISSLEAEDAATYYCGQGNRLPYTFGQGTKVEIE
notes: also called PF1-IgG1; PF1_H/PF1_L

koff [6]: 3.8e-05 s⁻¹
B5: RDC-8 (antibody, V domains shown)
VH: B1 VH with A103I
VL: B1 VL
notes: IgG; also called H chain RDC-8H, L chain L(WT)

binding relative to WT-IgG1 [8]: ~3.8 times of WT-IgG1
B10: WT-M73 (antibody)
heavy: QVQLQESGPGLVRPSQTLSLTCTVSGYSITSDHAWSWVRQPPGRGLEWIGYISYSGITTYNPSLKSRVTMLRDTSKNQFSLRLSSVTAADTAVYYCARSLARTTAMDYWGQGSLVTVSSASTKGPSVFPLAPSSKSTSGGTAALGCLVKDYFPEPVTVSWNSGALTSGVHTFPAVLQSSGLYSLSSVVTVPSSNFGTQTYTCNVDHKPSNTKVDKTVERKSCVECPPCPAPPVAGPSVFLFPPKPKDTLMISRTPEVTCVVVDVSQEDPEVQFNWYVDGVEVHNAKTKPREEQFNSTFRVVSVLTVVHQDWLNGKEYKCKVSNKGLPAPIEKTISKTKGQPREPQVYTLPPSQEEMTKNQVSLTCLVKGFYPSDIAVEWESNGQPENNYKTTPPMLDSDGSFFLYSKLTVDKSRWQEGNVFSCSVMHEALHAHYTQKSLSLSP
light: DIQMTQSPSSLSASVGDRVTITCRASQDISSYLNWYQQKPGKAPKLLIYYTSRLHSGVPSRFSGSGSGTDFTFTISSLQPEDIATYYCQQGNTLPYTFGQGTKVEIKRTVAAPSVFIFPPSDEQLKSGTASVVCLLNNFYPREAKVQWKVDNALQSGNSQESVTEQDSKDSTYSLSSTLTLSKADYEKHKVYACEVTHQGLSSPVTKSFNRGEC
notes: WT-M58 with alanine at position 434 (EU numbering); L(WT) as L chain; copies: 2 + 2

More lines, now with the values behind:

B2: H53/L28 (antibody, IgG1, V domains shown)
VH: B4 VH with V99S, I103T
VL: B4 VL with G89Q, R93S
notes: made from the humanized PM-1 IgG1 vectors; also called altered antibody H53/L28
fold reduction of KD compared to WT [3]: ~6 fold

B6: F2H/L39-IgG1 (antibody, V domains shown)
VH: QVQLQESGPGLVKPSETLSLTCAVSGYSISDDHAWSWVRQPPGEGLEWIGYISYSGITNYNPSLQDRVTISRDNSKNTLYLQMNSLRAEDTAVYYCARLLARATAMDYWGQGILVTVSS
VL: DIQMTQSPSSLSASVGDSVTITCQASEDISSYLNWYQQKPGKAPELLIYYGSELESGVPSRFSGSGSGTDFTFTISSLEAEDAATYYCGQGNRLPYTFGQGTKVEIER
ka relative to PF1-IgG1 [3]: ~0.5 fold of PF1-IgG1 | BaF/gp130-neutralizing activity, 100% inhibitory concentration, against WT [2]: ≥ 100 times higher than WT

B7: Fv3-M73 (antibody, V domains shown)
VH: B6 VH with Y27H, D31H, Y51F, S63T, D66G, L99S, A103T, Q111E, I113T
VL: B6 VL with E27R, Y32H, E53H, E55L
notes: also called H chain VH4-M73, L chain VL1-kappa
fold higher affinity than TOCILIZUMAB [7]: 3 times

B8: Fv4-M73 (antibody, V domains shown)
VH: B6 VH with Y27H, D31H, Y51F, D66G, L99S, A103T, Q111E, I113T
VL: B6 VL with E27T, Y32H, E53H, E55L
notes: also called H chain VH3-M73, L chain VL3-kappa
fold higher affinity than TOCILIZUMAB [7]: 2 times

B9: WT-M58 (antibody)
heavy: B10 heavy with A432N
light: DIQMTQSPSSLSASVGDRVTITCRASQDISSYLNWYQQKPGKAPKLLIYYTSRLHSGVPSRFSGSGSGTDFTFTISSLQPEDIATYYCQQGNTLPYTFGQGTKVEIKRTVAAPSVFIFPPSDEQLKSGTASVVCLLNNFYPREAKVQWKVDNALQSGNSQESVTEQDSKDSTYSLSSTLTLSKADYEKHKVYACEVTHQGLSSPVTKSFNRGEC
notes: L(WT) as L chain; copies: 2 + 2
binding relative to WT-IgG1 [8]: ~1.4 times of WT-IgG1

Source: patent US20110245473A1 (Chugai, published 2011)
